Measurements published in patent US20230227568A1 (Pieris, published 2023).
Values belong to the binder of their own block, whether it stands above or below them.

Tests used:
[1] = biological target: T1, human PD-L1 on CHO cells (human, UniProt Q9NZQ7 19-290); test: flow cytometry, Flp-In-CHO::huPD-L1 cells
T1 construct: whole, on cells; Stably transfected CHO cells; also called Flp-In-CHO::huPD-L1; human PD-L1-expressing CHO cells

[2] = biological target: T2, human 4-1BB on cells (human, UniProt Q07011 24-255); test: flow cytometry, Flp-In-CHO::hu4-1BB cells
T2 construct: whole, on cells; Stably transfected CHO cells (flow cytometry) and bought Jurkat reporter cells (bioassay); also called Flp-In-CHO::hu4-1BB; human 4-1BB-expressing CHO cells
Procedure: 5×10⁴ cells per well were incubated for 1 h in ice-cold PBS containing 5% fetal calf serum (PBS-FCS). A dilution series of the tested multimeric proteins (SEQ ID NOs: 38-44 and 46-55), the 4-1BB-targeting lipocalin mutein as included in the multimeric proteins (SEQ ID NO: 64) or the GPC3-targeting lipocalin SEQ ID NO: 90 were added to the cells and incubated for 1 h on ice. Cells were washed twice with PBS and then incubated with a rabbit anti-NGAL or a goat anti-human IgG labeled with fluorescent dye Alexa 488 for 30 min on ice. Human IgG4 isotype (SEQ ID NOs: 29 and 30) and lipocalin mutein SEQ ID NO: 8 were tested as a negative control. Cells were subsequently washed and analyzed using iQue Flow cytometer (Intellicyte Screener). Mean geometric fluorescent signals were plotted and fitted with Graphpad software using nonlinear regression (shared bottom, four parameters, variable slope).
Target-specific binding of hexavalent trimeric proteins to human 4-1BB-, OX40- or PD-L1-expressing cells was assessed by flow cytometry as described in Example 5, using CHO cells stably transfected with human 4-1BB, human OX40 or human PD-L1 (Flp-In system; Life Technologies).

[3] = biological target: T3, hu4-1BB-Fc (R&D Systems) (human, UniProt Q07011 24-186); test: SPR, hu4-1BB-Fc captured
T3 construct: Bought; also called human 4-1BB; not shown: human IgG Fc of the bought fusion

T1 sequence (Q9NZQ7 19-290): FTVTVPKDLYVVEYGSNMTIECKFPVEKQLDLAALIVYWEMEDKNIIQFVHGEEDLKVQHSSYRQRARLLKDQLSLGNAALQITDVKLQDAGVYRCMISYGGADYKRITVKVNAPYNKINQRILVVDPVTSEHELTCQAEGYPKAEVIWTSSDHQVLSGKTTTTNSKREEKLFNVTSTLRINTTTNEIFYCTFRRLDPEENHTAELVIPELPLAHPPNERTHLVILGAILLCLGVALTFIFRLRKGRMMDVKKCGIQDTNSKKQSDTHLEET
T2 sequence (Q07011 24-255): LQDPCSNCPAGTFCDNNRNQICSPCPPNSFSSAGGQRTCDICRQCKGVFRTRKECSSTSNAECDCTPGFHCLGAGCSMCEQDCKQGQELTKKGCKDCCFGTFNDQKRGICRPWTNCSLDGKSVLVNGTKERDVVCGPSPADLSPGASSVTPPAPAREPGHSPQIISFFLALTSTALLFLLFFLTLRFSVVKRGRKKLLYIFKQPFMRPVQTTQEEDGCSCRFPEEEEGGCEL

EC50 [1]: 1.23 nM
EC50 [2]: 4.71 nM
B1: bispecific hexavalent trimeric protein SEQ ID NO: 167 (designed binder)
chain: QVQLQESGPGLVKPSETLSITCTVSGFSLSNYDISWIRQPPGKGLEWLGVIWTGGATNYNPALKSRLTISRDNSKNQVSLKMSSVTAADTAVYYCVRDSNYRYDEPFTYWGQGTLVTVSSGGGGSGGGGSGGGGSGGGGSEIVLTQSPDTLSVTPKEKVTLTCRASQSIGTNIHWFQQKPGQSPKLLIKYASESISGVPSRFSGSGSGTDFTLTINSVEAEDAATYYCQQSNSWPYTFGQGTKLEIKGGGGSGGGGSGGGGSGVRLWATRQAMLGQVHEVPEGWLIFVAEQEELYVRVQNGFRKVQLEARTPLGGGGSGGGGSGGGGSQDSTSDLIPAPPLSKVPLQQNFQDNQFHGKWYVVGQAGNIRLREDKDPIKMMATIYELKEDKSYDVTMVKFDDKKCMYDIWTFVPGSQPGEFTLGKIKSFPGHTSSLVRVVSTNYNQHAMVFFKFVFQNREEFYITLYGRTKELTSELKENFIRFSKSLGLPENHIVFPVPIDQCIDGGGSGGAPEQKLISEEDLGSHHHHHHHHHH

binding result [3]: binds
B2: multimeric protein SEQ ID NO: 45 (designed binder)
chain: GVRLWATRQAMLGQVHEVPEGWLIFVAEQEELYVRVQNGFRKVQLEARTPLGGGGSGGGGSGGGGSGGGGSGGGGSQDSTSDLIPAPPLSKVPLQQNFQDNQFHGKWYVVGQAGNIRLREDKDPIKMMATIYELKEDKSYDVTMVKFDDKKCMYDIWTFVPGSQPGEFTLGKIKSFPGHTSSLVRVVSTNYNQHAMVFFKFVFQNREEFYITLYGRTKELTSELKENFIRFSKSLGLPENHIVFPVPIDQCIDGGGSGGAPEQKLISEEDLGSHHHHHHHHHH
